Like-named read-outs stand apart in the source and are kept apart here.
Key:
[1] = biological target: T1, CD73 on the surface of Calu6 cells (UniProt P21589 27-549); test: flow cytometry on Calu6 cells, antibody at 1 ug/mL, kept at 4 C, PE anti-human IgG Fc detection
T1 construct: whole, on cells; also called CD73 antigen on the cell surface; CD73 on the cell surface
T1 sequence (looked up): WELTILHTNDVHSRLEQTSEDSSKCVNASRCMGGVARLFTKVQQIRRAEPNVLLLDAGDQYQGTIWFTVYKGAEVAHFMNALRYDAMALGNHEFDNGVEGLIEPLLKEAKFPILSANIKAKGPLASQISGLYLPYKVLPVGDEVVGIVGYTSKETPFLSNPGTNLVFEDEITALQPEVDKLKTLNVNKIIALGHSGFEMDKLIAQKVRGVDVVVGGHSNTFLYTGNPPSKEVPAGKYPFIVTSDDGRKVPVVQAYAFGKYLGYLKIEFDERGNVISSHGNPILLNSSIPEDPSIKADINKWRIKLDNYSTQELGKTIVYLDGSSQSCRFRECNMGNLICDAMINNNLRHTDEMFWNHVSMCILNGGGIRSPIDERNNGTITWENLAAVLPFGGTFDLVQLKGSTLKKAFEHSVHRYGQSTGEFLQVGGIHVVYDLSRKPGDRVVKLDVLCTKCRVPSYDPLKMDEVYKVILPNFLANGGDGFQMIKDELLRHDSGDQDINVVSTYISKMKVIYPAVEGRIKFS
Method: The endocytosis efficiency of monoclonal antibodies 900698 and 900725 was compared through an endocytosis assay, with the procedures as follows: Anti-CD73 antigen-binding proteins such as the CD73 positive control antibody BMS-986179, 900698, and 900725 were diluted to 1 μg/mL with a PBS solution, with 2 replicate wells set up for each concentration. Calu6 cells in the logarithmic growth phase were taken and prepared into a cell suspension at 2× 10⁵ cells/mL. The cell suspension was then added at 100 μL (about 20000 cells) per well to a 96-well U-bottom plate and centrifuged at 300 g for 3 min, and then the supernatant was discarded. Then, the diluted antigen-binding proteins were each added at 100 μL/well to resuspend the cells, and the mixture was mixed uniformly and incubated at 4° C. for 30 min. After the incubation was completed, the mixture was centrifuged at 300 g for 3 min, and then the supernatant was discarded. The cells were then resuspended in 1% BSA, with half incubated at 37° C. and the other half at 4° C., for an incubation time of 5 h. After the incubation was completed, the wells corresponding to the specified time were removed. The cells in these wells were centrifuged at 300 g for 3 min, and then the supernatant was discarded. PE anti-hulgG Fc (1:200) was then added at 50 μL/well, and the mixture was mixed uniformly and allowed to react at 4° C. for 30 min. After the incubation was completed, the cells were washed twice and centrifuged at 300 g for 3 min, and the fluorescence intensity was detected by flow cytometry. The assay results for the endocytosis of CD73 on the cell surface induced by the anti-CD73 antigen-binding proteins are shown in Table 5 below and FIG. 9. […] 34%. In FIG. 9, the results for BMS-986179, 900725, and 900698 are represented as 1-3, respectively, and NC indicates the result for the condition that only a 1% BSA solution was added without any antibody or antibody-drug conjugate.

[2] = biological target: T1, CD73 on the surface of Calu6 cells; test: cell-based or functional assay
[3] = biological target: T2, human CD73 expressed on CHOK1-huCD73-3F4 cells (human, UniProt P21589 27-549); test: flow cytometry (PE-MFI, PE-goat anti-human-Fc) on CHOK1-huCD73-3F4 cells expressing human CD73; four-parameter fit table under the curves, unit from the concentration axis
T2 construct: whole, on cells; also called cells expressing human CD73 (CHOK1-huCD73-3F4, Huabo Biopharm); CD73 antigen on the cell surface
T2 sequence (looked up): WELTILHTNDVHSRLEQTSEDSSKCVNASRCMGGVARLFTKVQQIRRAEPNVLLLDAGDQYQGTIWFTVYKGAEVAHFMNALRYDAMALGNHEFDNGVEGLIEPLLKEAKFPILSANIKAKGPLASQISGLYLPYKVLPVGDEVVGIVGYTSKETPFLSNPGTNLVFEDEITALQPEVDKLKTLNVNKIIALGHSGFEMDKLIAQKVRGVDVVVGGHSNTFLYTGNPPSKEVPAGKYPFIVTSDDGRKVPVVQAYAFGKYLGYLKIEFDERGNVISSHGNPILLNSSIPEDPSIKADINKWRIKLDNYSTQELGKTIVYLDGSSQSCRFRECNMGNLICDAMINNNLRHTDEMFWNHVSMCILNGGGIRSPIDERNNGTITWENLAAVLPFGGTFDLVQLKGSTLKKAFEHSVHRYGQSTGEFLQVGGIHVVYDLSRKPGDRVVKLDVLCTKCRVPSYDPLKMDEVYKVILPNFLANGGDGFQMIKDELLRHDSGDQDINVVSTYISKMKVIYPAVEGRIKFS
Method: The binding activity of the antibody-drug conjugate 1 and the antibody-drug conjugate 2 prepared in Example 1 and the 900698 naked antibody to cells expressing human CD73 (CHOK1-huCD73-3F4, Huabo Biopharm) was assayed.
All antigen-binding proteins were diluted to 30 μg/mL with a solution of 1% BSA in PBS (1% BSA/PBS), followed by a 3-fold dilution across 10 gradients. The diluted proteins were each added at 20 μL per well to a 96-well U-bottom plate, with a negative control (adding only 1% BSA/PBS) set up simultaneously. A suspension of cells expressing human CD73 (CHOK1-huCD73-3F4, Huabo Biopharm) in the logarithmic growth phase was taken and centrifuged (1000 rpm×5 min), and then the culture medium was discarded. The cells were resuspended in 1% BSA/PBS until the viable cell density was 1×10⁶ cells/mL, then added at 20 μL (2×10⁴ cells) per well to the 96-well U-bottom plate containing the anti-CD73 antigen-binding proteins, and incubated at room temperature for reaction for 30 min. The reacted cells in the 96-well U-bottom plate were resuspended in 1% BSA/PBS and centrifuged (300 g×3 min), and then the supernatant was discarded. This washing process was performed once. Then, a 1:200 dilution of PE-goat anti-human-Fc (Jackson ImmunoResearch, #109-115-098) was added, and the cells were incubated in the dark at room temperature for reaction for 15 min. The reacted cells in the 96-well U-bottom plate were further resuspended in 1% BSA/PBS and centrifuged (300 g×3 min), and then the supernatant was discarded. This washing process was performed 3 times. Finally, the cells were resuspended in 100 μL of 1% BSA/PBS per well, and the fluorescence intensity in the PE channel was detected using a flow cytometer (BD, #Canto II).

[4] = biological target: T3, human CD73 protein (ACRO Biosystems, Cat. No. CD3-H52H7) (human, UniProt P21589 27-547); test: cell-based or functional assay
T3 sequence (looked up): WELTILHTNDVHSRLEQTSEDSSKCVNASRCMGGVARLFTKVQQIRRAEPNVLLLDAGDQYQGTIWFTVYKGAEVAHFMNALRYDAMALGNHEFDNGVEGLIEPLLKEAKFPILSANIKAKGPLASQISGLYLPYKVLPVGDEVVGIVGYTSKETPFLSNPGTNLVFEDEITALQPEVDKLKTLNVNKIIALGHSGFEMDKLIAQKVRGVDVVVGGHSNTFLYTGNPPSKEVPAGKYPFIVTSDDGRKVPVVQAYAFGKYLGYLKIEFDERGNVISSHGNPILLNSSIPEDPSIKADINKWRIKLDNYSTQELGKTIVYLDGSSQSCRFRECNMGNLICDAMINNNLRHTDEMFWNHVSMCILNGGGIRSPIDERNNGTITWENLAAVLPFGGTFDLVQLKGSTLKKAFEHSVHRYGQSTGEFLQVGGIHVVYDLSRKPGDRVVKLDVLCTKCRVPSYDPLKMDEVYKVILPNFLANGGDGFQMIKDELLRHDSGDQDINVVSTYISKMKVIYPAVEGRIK

[5] = biological target: T3, human CD73 protein (ACRO Biosystems, …); test: SPR (Biacore T200), antibody captured on protein A chip, CD73 as analyte, 1:1 model
Method: (§1) The binding kinetics of the antibody-drug conjugate 1 and the antibody-drug conjugate 2 prepared in Example 1 and the 900698 naked antibody with a human CD73 protein (manufacturer: ACRO Biosystems, Cat. No. CD3-H52H7) and a monkey CD73 protein (manufacturer: Novoprotein, Cat. No. CI21) were assayed using Biacore (GE, model: T200), with an assay buffer of HBS-EP+ (pH 7.4) and a protein A chip (manufacturer: GE, Cat. No. 29-1275-56).
(§2) The temperature for the sample compartment and the flow path was set to 25° C. The protein A chip captured each antigen-binding protein as a ligand, fixing about 100 RU. The human CD73 protein was diluted with the assay buffer to a series of concentrations of 50 nM, 25 nM, 12.5 nM, 6.25 nM, 3.12 nM, and 1.57 nM, serving as analytes, and the assay buffer was used as a 0 concentration control. At a flow rate of 30 μL/min, association was conducted for 120 s, and dissociation was conducted for 600 s. Glycine (10 mM, pH 1.5) was used for regeneration at a flow rate of 50 μL/min for 60 s in a multi-cycle kinetic assay. A 1:1 binding model was used, and the Fit Local mode was selected to determine the association rate constant (ka), dissociation rate constant (kd), and equilibrium dissociation constant (KD).

[6] = biological target: T4, monkey CD73 protein (Novoprotein, Cat. No. CI21) (monkey); test: as above
T4 construct: Bought protein
Method: as §1, §2

[7] = biological target: T1, CD73 on the surface of Calu6 cells; test: cell-based or functional assay; remark: listed apart in the source

B1: BMS-986179 (antibody, human IgG1, kappa, L234A L235A, V domains shown)
VH: QVQLVESGGGVVQPGRSLRLSCAASGFTFSNYGMHWVRQAPGKGLEWVAVILYDGSNKYYPDSVKGRFTISRDNSKNTLYLQMNSLRAEDTAVYYCARGGSSWYPDSFDIWGQGTMVTVSS
VL: DIQMTQSPSSLSASVGDRVTITCRASQGISSWLAWYQQKPEKAPKSLIYAASSLQSGVPSRFSGSGSGTDFTLTISSLQPEDFATYYCQQYNSYPLTFGGGTKVEIKR
notes: also called CD73 positive control antibody BMS-986179
[1]
  fluorescence intensity at 4° C.: 25700
[2]
  Endocytosis efficiency (%): 44.2%
  fluorescence intensity of surface antibody after 5 h at 37° C. (flow cytometry, Calu6 cells): 14400

B2: 900725 antibody (antibody, V domains shown)
VH: QVQLVQSGAEVKKPGASVKLSCKASGYTFTSYWIHWVRQAPGQGLEWIGMIHPNSGSTYYNEKFKGRATLTVDKSTSTAYMELSSLRSEDTAVYYCARYYGSDYEWYFDVWGQGTTVTVSS
VL: DIQMTQSPSSMSASVGDRVTITCKASQNVRTAVVWYQQKPGKAPKALIYLASNRHTGVPDRFSGSGSGTDFTLTISSLQPEDFATYFCLQHWNYPYTFGQGTKLEIK
notes: It was detected with anti-human IgG Fc; also called anti-CD73 antibody 900725
[1]
  fluorescence intensity at 4° C.: 13900
[2]
  Endocytosis efficiency (%): 37.5%
  fluorescence intensity of surface antibody after 5 h at 37° C. (flow cytometry, Calu6 cells): 8710

B3: 900698 antibody (antibody, V domains shown)
VH: QVQLVESGGGLVKPGGSLRLSCAASGFTFSKYAMSWIRQAPGKGLEWVAEISSGGGYINYADSVKGRFTISRDNAKNSLYLQMNSLRAEDTAVYYCARAIYYYGSSYNYYAMDYWGQGTTVTVSS
VL: DIQMTQSPSSLSASVGDRVTITCRASQDVGTAEAWYQQKPGKAPKLLIYWASTRHTGVPSRFSGSGSGTDFTLTISSLQPEDFATYYCQQYSSYPLTFGQGTKLEIK
notes: embodiments say they may derive from human IgG1 and human Ig kappa; It was detected with anti-human Fc and captured on protein A; also called 900698 naked antibody; naked antibody 900698
[1]
  fluorescence intensity at 4° C.: 8940
[3]
  EC50: 1.01 µg/mL
[4]
  IC50, inhibition of the enzymatic activity of recombinant CD73 (AMP/ATP, CellTiter-Glo signal): 0.352 µg/mL
[5]
  Kd: 0.711 nM
  koff: 0.000104 s⁻¹
  kon: 147000 M⁻¹ s⁻¹
[6]
  Kd: 0.121 nM
  koff: 1.8e-05 s⁻¹
  kon: 148000 M⁻¹ s⁻¹
[7]
  Endocytosis efficiency (%): 95.4%
[2]
  Endocytosis efficiency (%): 96.3%
  fluorescence intensity of surface antibody after 5 h at 37° C. (flow cytometry, Calu6 cells): 359

B4: CD73 antibody-Mc-VC-PAB-DMEDA-PEG-SN38 (antibody, V domains shown)
VH: QVQLVESGGGLVKPGGSLRLSCAASGFTFSKYAMSWIRQAPGKGLEWVAEISSGGGYINYADSVKGRFTISRDNAKNSLYLQMNSLRAEDTAVYYCARAIYYYGSSYNYYAMDYWGQGTTVTVSS
VL: DIQMTQSPSSLSASVGDRVTITCRASQDVGTAEAWYQQKPGKAPKLLIYWASTRHTGVPSRFSGSGSGTDFTLTISSLQPEDFATYYCQQYSSYPLTFGQGTKLEIK
modifications: SN-38 conjugated through Mc-VC-PAB-DMEDA-PEG linker by cysteine conjugation; DAR about 7.8 for the whole antibody; conjugated cysteines not named
notes: the constant regions that carry the conjugated cysteines are not; also called antibody-drug conjugate 1
[3]
  EC50: 0.659 µg/mL
[4]
  IC50, inhibition of the enzymatic activity of recombinant CD73 (AMP/ATP, CellTiter-Glo signal): 0.587 µg/mL
[5]
  Kd: 0.339 nM
  koff: 0.000129 s⁻¹
  kon: 381000 M⁻¹ s⁻¹
[6]
  Kd: 0.0349 nM
  koff: 1.92e-06 s⁻¹
  kon: 55000 M⁻¹ s⁻¹
[7]
  Endocytosis efficiency (%): 95.6%

B5: CD73 antibody-MP2-VC-PAB-DMEDA-PEG-SN38 (antibody, V domains shown)
VH: QVQLVESGGGLVKPGGSLRLSCAASGFTFSKYAMSWIRQAPGKGLEWVAEISSGGGYINYADSVKGRFTISRDNAKNSLYLQMNSLRAEDTAVYYCARAIYYYGSSYNYYAMDYWGQGTTVTVSS
VL: DIQMTQSPSSLSASVGDRVTITCRASQDVGTAEAWYQQKPGKAPKLLIYWASTRHTGVPSRFSGSGSGTDFTLTISSLQPEDFATYYCQQYSSYPLTFGQGTKLEIK
modifications: SN-38 conjugated through MP2-VC-PAB-DMEDA-PEG linker by cysteine conjugation; DAR about 7.8 for the whole antibody; conjugated cysteines not named
notes: the constant regions that carry the conjugated cysteines are not; also called antibody-drug conjugate 2
[3]
  EC50: 0.67 µg/mL
[4]
  IC50, inhibition of the enzymatic activity of recombinant CD73 (AMP/ATP, CellTiter-Glo signal): 0.553 µg/mL
[5]
  Kd: 0.354 nM
  koff: 0.000228 s⁻¹
  kon: 643000 M⁻¹ s⁻¹
[6]
  Kd: 0.252 nM
  koff: 0.000114 s⁻¹
  kon: 454000 M⁻¹ s⁻¹
[7]
  Endocytosis efficiency (%): 95.8%
